In patent US20190276496A1 (FUNDACI N PARA LA INVESTIGACI N M DICA APLICADA, published 2019):
Where no end group is shown, it is not given here. [ ]: non-standard residue; d: D form.

B1: peptide of SEQ ID NO: 46 (peptide)
peptide: H-[dR]AFQSFRKMWPFFAM-OH
SMILES: CSCC[C@H](NC(=O)[C@H](C)NC(=O)[C@H](Cc1ccccc1)NC(=O)[C@H](Cc1ccccc1)NC(=O)[C@@H]1CCCN1C(=O)[C@H](Cc1c[nH]c2ccccc12)NC(=O)[C@H](CCSC)NC(=O)[C@H](CCCCN)NC(=O)[C@H](CCCNC(=N)N)NC(=O)[C@H](Cc1ccccc1)NC(=O)[C@H](CO)NC(=O)[C@H](CCC(N)=O)NC(=O)[C@H](Cc1ccccc1)NC(=O)[C@H](C)NC(=O)[C@H](N)CCCNC(=N)N)C(=O)O
B2: peptide of SEQ ID NO: 14 (peptide)
peptide: Ac-GR[dA]FQSFRKMWPFFAM-NH2
SMILES: CSCC[C@H](NC(=O)[C@H](C)NC(=O)[C@H](Cc1ccccc1)NC(=O)[C@H](Cc1ccccc1)NC(=O)[C@@H]1CCCN1C(=O)[C@H](Cc1c[nH]c2ccccc12)NC(=O)[C@H](CCSC)NC(=O)[C@H](CCCCN)NC(=O)[C@H](CCCNC(=N)N)NC(=O)[C@H](Cc1ccccc1)NC(=O)[C@H](CO)NC(=O)[C@H](CCC(N)=O)NC(=O)[C@H](Cc1ccccc1)NC(=O)[C@@H](C)NC(=O)[C@H](CCCNC(=N)N)NC(=O)CNC(C)=O)C(N)=O
B3: cyclic peptide SEQ ID NO: 50 (peptide)
peptide: RAFQAFRKMWPFFAM
modifications: head-to-tail cyclic: linker L is C(=O) between the N-terminal amino group of residue 1 and the alpha carbon of residue 15
B4: peptide of SEQ ID NO: 4 (peptide)
peptide: Ac-GR[dD]FQSFRKMWPFFAM-NH2
SMILES: CSCC[C@H](NC(=O)[C@H](C)NC(=O)[C@H](Cc1ccccc1)NC(=O)[C@H](Cc1ccccc1)NC(=O)[C@@H]1CCCN1C(=O)[C@H](Cc1c[nH]c2ccccc12)NC(=O)[C@H](CCSC)NC(=O)[C@H](CCCCN)NC(=O)[C@H](CCCNC(=N)N)NC(=O)[C@H](Cc1ccccc1)NC(=O)[C@H](CO)NC(=O)[C@H](CCC(N)=O)NC(=O)[C@H](Cc1ccccc1)NC(=O)[C@@H](CC(=O)O)NC(=O)[C@H](CCCNC(=N)N)NC(=O)CNC(C)=O)C(N)=O

biological target: human FOXP3 tagged with 6 histidines at the C terminus (human) (UniProt Q9BZS1); test: AlphaScreen competition, His-tagged FOXP3 (400 nM) / GST-tagged FOXP3 (40 nM, competitor); peptide at 20 µM
Sequence (Q9BZS1 other isoform, or with tags, fused parts or gaps): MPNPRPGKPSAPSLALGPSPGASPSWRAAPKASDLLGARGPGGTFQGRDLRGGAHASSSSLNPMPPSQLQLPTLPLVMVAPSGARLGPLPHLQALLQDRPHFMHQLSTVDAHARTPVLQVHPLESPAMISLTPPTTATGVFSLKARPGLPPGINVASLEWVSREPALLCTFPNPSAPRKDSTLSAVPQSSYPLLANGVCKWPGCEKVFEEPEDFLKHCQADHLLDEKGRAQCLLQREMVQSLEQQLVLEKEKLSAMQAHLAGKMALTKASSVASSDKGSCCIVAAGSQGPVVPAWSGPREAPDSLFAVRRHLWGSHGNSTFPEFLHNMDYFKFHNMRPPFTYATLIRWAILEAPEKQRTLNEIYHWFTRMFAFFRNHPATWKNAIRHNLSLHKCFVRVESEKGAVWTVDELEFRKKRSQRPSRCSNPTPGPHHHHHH

In order of rising Dimerization inhibition % inhibition:
1. Ac-GRDFQSFRKMWPFFAM-NH2 [peptide of SEQ ID NO: 2]  80%
2. B1  90%
3. B2  90%

biological target: human FOXP3 tagged with 6 histidines at the C terminus (human) (UniProt Q9BZS1); test: AlphaScreen competition, His-tagged FOXP3 (400 nM) / GST-tagged FOXP3 (40 nM, competitor); peptide at 100 µM

In order of rising Dimerization inhibition % inhibition:
1. RDFQSFRKMWPFFAM [p60 (peptide of SEQ ID NO: 1)]  59.7%
2. RAFQSFRKMWPFFAM [peptide of SEQ ID NO: 5]  74.3%
3. RDFQSFRKMWAFFAM [peptide of SEQ ID NO: 30]  81.3%
4. RDFQAFRKMWPFFAM [peptide of SEQ ID NO: 19]  89%

biological target: GST-FOXP3 (GST fused to the isoform A from human FOXP3 gene) (human) [GST: P08515]; test: AlphaScreen competition, GST-FOXP3 (100 nM) / His-Runx1 (46 nM, competitor); peptide at 2.5 µM
Sequence (P08515 1-218, tags or fused parts left off): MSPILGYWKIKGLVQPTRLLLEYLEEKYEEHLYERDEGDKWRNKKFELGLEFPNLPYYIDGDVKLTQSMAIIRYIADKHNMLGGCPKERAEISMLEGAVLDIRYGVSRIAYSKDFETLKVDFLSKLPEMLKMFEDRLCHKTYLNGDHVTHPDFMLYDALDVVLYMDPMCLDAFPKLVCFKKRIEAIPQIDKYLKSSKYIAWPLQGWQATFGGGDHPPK

In order of rising Foxp3-Runx1 Inhibition % inhibition:
1. B3  60%
2. [dR]AFQSFRKMWPFFA[dM] [peptide of SEQ ID NO: 48]  70%
3. RAFQSFRKMWPFFA[dM] [peptide of SEQ ID NO: 47]  75%
4. B2  80%
5. B1  95%

biological target: T1, Foxp3 in murine CD25+ Treg cells (mouse, UniProt Q99JB6 1-417); test: cell-based or functional assay
T1 sequence (looked up): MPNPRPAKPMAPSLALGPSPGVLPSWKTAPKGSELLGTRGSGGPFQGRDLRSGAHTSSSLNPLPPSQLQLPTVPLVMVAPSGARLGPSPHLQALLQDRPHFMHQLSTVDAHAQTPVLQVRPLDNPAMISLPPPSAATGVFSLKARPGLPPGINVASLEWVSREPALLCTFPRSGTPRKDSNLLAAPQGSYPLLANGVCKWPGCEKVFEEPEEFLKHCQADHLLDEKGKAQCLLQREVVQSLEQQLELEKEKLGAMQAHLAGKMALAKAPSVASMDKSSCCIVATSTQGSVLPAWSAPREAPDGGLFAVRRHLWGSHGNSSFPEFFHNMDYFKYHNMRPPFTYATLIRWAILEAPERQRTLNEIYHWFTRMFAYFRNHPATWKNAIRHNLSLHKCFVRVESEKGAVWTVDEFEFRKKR

In order of rising “Treg inhibition-% inhibition (100 µM)” value:
1. RDFQSFRKMWPFFAM [p60 (peptide of SEQ ID NO: 1)]  116%
2. RDFQAFRKMWPFFAM [peptide of SEQ ID NO: 19]  160%
3. RDFQSFRKMWAFFAM [peptide of SEQ ID NO: 30]  170%
4. RAFQSFRKMWPFFAM [peptide of SEQ ID NO: 5]  347%

biological target: T1, Foxp3 in murine CD25+ Treg cells; test: cell-based or functional assay; remark: another data set of the same source

In order of falling “IC50 (µM) of inhibition of Treg activity, in vitro Treg suppression assay (murine Tconv + Treg, anti-CD3, [3H]-thymidine)” value:
1. RDFQSFRKMWPFFAM [p60 (peptide of SEQ ID NO: 1)]  38.3 µM
2. RAFQSFRKMWPFFA[dM] [peptide of SEQ ID NO: 47]  35 µM
3. [dR]AFQSFRKMWPFFA[dM] [peptide of SEQ ID NO: 48]  20 µM
4. B4  13.4 µM
5. B1  12.5 µM
6. B2  12.5 µM
7. Ac-GRAFQAFRKMWAFFAM-NH2 [peptide of SEQ ID NO: 45]  3 µM
8. B3  0.8 µM

biological target: human FOXP3 tagged with 6 histidines at the C terminus (human) (UniProt Q9BZS1); test: SPR (ProteOn XPR36), FOXP3-6His immobilized on GLM chip, peptide 1-20 µM injected; ratio to p60 (SEQ ID NO: 1)

In order of rising Ratio binding Peptide/p60 (fold change):
1. RDFQSFRKMWPFFAM [p60 (peptide of SEQ ID NO: 1)]  1 fold change
2. RDFQSFRKMWAFFAM [peptide of SEQ ID NO: 30]  1.1 fold change
3. RDAQSFRKMWPFFAM [peptide of SEQ ID NO: 15]  1.1 fold change
4. RDFQAFRKMWPFFAM [peptide of SEQ ID NO: 19]  1.1 fold change
5. RAFQSFRKMWPFFA[dM] [peptide of SEQ ID NO: 47]  1.7 fold change
6. Ac-GRDFQSFRKMWPFFAM-NH2 [peptide of SEQ ID NO: 2]  2.4 fold change
7. [dR]AFQSFRKMWPFFA[dM] [peptide of SEQ ID NO: 48]  2.5 fold change
8. B1  2.7 fold change
9. B2  3.6 fold change
10. RAFQSFRKMWPFFAM [peptide of SEQ ID NO: 5]  4.1 fold change
11. B4  4.2 fold change
12. Ac-GRAFQAFRKMWAFFAM-NH2 [peptide of SEQ ID NO: 45]  8 fold change
13. B3  21.4 fold change

biological target: GST-FOXP3 (GST fused to the isoform A from human FOXP3 gene) (human) [GST: P08515]; test: AlphaScreen competition, GST-FOXP3 (100 nM) / His-Runx1 (46 nM, competitor); peptide at 100 µM

In order of rising Foxp3-Runx1 Inhibition % inhibition:
1. RDFQSFRKMWPFFAM [p60 (peptide of SEQ ID NO: 1)]  54.5%
2. RDAQSFRKMWPFFAM [peptide of SEQ ID NO: 15]  55.6%
3. RDFQSFRKMWAFFAM [peptide of SEQ ID NO: 30]  73.9%
4. RDFQAFRKMWPFFAM [peptide of SEQ ID NO: 19]  74.7%
5. RAFQSFRKMWPFFAM [peptide of SEQ ID NO: 5]  76%
